Article PMC3494747

Experiments:
[1] = target: H2-D^b class I heavy chain, endogenous on RMA-S cells (mouse (endogenous in RMA-S)); experiment: peptide-induced MHC class I surface stabilization assay
[2] = target: DLA-88*50801 heavy chain with a FLAG epitope tag at the carboxyl terminus, on BARC3 cells (canine); experiment: flow cytometry on cells
[3] = target: DLA-88*50801 heavy chain with a FLAG epitope tag at the carboxyl terminus, on BARC3 cells (canine); experiment: dissociation of peptide-MHC complexes from the cell surface under brefeldin A

Sequence of H2-D^b class I heavy chain, endogenous on RMA-S cells (mouse (endogenous in RMA-S)) (P01899 25-362): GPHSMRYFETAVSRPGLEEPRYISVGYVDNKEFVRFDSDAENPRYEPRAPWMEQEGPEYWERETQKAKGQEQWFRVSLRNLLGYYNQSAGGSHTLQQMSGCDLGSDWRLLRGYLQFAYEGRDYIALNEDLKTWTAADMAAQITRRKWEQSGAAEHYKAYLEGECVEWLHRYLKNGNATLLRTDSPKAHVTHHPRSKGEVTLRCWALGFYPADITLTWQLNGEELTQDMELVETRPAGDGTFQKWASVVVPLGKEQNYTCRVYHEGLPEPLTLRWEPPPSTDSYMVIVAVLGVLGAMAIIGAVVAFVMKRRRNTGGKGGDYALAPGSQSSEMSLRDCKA

Molecule | dissociation half-life (t1/2), first experiment [3] [h] | other results
NP396 peptide (LCMV-derived immunodominant peptide) | – | MFI of anti-H2-D^b staining of peptide-loaded RMA-S cells [1]: 217 MFI
murine β2-microglobulin (from UniProt P01887 21-119) (natural protein) | – | MFI of anti-murine β2M staining (K11-pulsed BARC3 cells) [2]: 281 MFI
KLFSGELTK [K9 peptide] | 1.9 | –
RFLDKDGFIDK [K11 peptide] | 6 | –
